Measured values taken from publication PMC4775226, “Active and water-soluble form of lipidated Wnt protein is maintained by a serum glycoprotein afamin/α-albumin” (eLife, 2016).

B1: PA-tagged human Wnt3 (natural protein, UniProt P56703 22-355, looked up)
chain: GYPIWWSLALGQQYTSLGSQPLLCGSIPGLVPKQLRFCRNYIEIMPSVAEGVKLGIQECQHQFRGRRWNCTTIDDSLAIFGPVLDKATRESAFVHAIASAGVAFAVTRSCAEGTSTICGCDSHHKGPPGEGWKWGGCSEDADFGVLVSREFADARENRPDARSAMNKHNNEAGRTTILDHMHLKCKCHGLSGSCEVKTCWWAQPDFRAIGDFLKDKYDSASEMVVEKHRESRGWVETLRAKYSLFKPPTERDLVYYENSPNFCEPNPETGSFGTRDRTCNVTSHGIDGCDLLCCGRGHNTRTEKRKEKCHCIFHWCCYVSCQECIRIYDVHTCK
B2: bovine afamin from the serum of the culture medium (natural protein, UniProt G3MYZ3 22-604, looked up)
chain: LPTQPQDVDDVRITQKFIDDNIGYITIIAFAQYIQEASFEEVEMLVKAMTEYRDKCLADRTLPECSKLANEVLLENICAMEGLPQKYNFSHCCHKVDFERRLCFFHNKKADIGLLPPLPTLDPEEKCQTYKNNRESFLNNYVYEVSRRNPFVFAPTLLTVAARFEEMTKTCCEEQEKANCFQTKAEPFIYYLKALSSYQKNACRALMKFGRQILQSINIAILSQKFPKIGFKQLTSLLEDVSSKYDGCCEGDVVQCIRGRSKVMSHICSKQDSISSKIKDCCEKKIPERGECIIYSNKDDRPNDLSLREAKFIESDNVCEKRDADQANFMAEFLYEYSRRHPELSTPELLRIAKVYKDLLKECCNMENPPECYRHAENRFNETTEKSLKIVQRECEHFQNLGKDDLKYHYLINLTKLAPQLSTEELTFLGKEMVMALTTCCTLSEEFACVDNLVDLVLGELCGINENRNINPAVDHCCKTNFAFRRSCFESLEADKTYVPPSTSQGLFTFHADLCQAHNEELQRKKDRFLVNLVKLKPELAGEELWSLLADFTNVVEKCCKAQEPEACFKEESPKLAAKSQAA
notes: bovine afamin, serum-derived; Glycoprotein of about 70 kDa; also called AFM; α-albumin; source: endogenous, fetal calf serum in the culture medium

Assays:
[1] = molecular target: T1, Tg-tagged human afamin (human, UniProt P43652 22-599); test: co-IP; anti-Tg antibody P20.1-Sepharose, serum-free culture media of Expi293F cells co-transfected with Tg-hAFM and PA-tagged human Wnts; immunoblot with biotinylated NZ-1; details: partners not purified
T1 construct: human afamin with a long (36 residues) N-terminal tag peptide; cDNA was a gift from Luc Bélanger; built by the same strategy as the tagged Wnts (tag, TEV site); also called Tg-hAFM; Tg-AFM; source: Expi293F cells, transiently co-transfected with PA-tagged Wnts, in serum-free culture medium; not shown: TARGET (Tg) tag, N-terminal, kept
T1 sequence (looked up): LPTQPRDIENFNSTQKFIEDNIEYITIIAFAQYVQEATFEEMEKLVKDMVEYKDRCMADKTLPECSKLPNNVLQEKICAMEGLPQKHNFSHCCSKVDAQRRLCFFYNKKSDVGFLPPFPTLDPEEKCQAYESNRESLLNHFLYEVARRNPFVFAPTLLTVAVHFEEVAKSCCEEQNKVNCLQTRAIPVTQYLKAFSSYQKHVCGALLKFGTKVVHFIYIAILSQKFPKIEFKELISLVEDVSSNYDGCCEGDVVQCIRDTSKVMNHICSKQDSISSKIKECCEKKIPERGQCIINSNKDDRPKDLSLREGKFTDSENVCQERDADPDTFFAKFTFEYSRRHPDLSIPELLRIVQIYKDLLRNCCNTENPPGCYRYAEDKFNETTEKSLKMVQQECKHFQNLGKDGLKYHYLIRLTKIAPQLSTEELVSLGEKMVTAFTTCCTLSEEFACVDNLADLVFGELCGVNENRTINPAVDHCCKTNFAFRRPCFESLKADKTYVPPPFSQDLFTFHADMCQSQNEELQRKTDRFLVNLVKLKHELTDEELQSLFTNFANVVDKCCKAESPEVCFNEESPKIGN

[2] = molecular target: T2, TARGET-tagged mouse Wnt3a (mouse, UniProt P27467 19-352); test: SEC; immunoaffinity-purified Wnt preparation on Superdex 200 10/300GL in TBS, no detergent; fractions on nonreducing SDS-PAGE, Coomassie stain and immunoblots; details: both partners purified
T2 construct: Construct design (N-terminal region from the initiation Met) is in Supplementary file 1; also called Tg-Wnt3a; tagged Wnt3a; source: purified on P20.1-Sepharose (peptide elution), SEC; not shown: TARGET (Tg) tag, N-terminal, kept
T2 sequence (P27467 19-352): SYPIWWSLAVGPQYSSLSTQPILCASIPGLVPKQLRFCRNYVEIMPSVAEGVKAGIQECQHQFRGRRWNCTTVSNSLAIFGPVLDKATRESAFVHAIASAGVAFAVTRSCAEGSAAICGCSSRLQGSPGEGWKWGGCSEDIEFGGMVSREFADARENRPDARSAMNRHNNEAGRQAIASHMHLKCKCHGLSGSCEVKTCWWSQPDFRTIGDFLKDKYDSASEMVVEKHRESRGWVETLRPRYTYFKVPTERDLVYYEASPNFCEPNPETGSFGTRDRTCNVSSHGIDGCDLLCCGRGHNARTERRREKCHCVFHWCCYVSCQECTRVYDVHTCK

Row | Binder | binding result [1] | stoichiometry N [2]
1 | B1 | binds | 
2 | B2 |  | 1
